Experiment [1] has as its target T1, Human CFHL1-Y402H-His (ATX-P-421) (human).
T1 construct: also called human CFHL-1 (Y402H) protein
T1 chain: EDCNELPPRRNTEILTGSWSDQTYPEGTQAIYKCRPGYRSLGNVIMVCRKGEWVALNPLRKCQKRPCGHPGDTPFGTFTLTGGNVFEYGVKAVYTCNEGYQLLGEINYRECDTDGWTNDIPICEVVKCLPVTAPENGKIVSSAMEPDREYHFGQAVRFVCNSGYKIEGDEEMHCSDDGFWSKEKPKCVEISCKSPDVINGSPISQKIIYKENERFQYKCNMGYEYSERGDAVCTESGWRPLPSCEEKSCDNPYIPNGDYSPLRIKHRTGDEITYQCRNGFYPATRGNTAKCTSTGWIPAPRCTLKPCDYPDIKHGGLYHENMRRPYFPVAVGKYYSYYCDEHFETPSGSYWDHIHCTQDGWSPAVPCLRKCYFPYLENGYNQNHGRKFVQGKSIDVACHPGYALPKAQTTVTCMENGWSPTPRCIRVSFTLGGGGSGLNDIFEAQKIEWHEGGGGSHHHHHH
The experiment in a line: Carterra LSA biosensor, mAb printed on chip, human CFHL1-Y402H-His at 380 nM. The procedure: (§1) Experiments were also conducted to determine the reactivity of the CFHR4 antibodies with the human CFHL-1 (Y402H) protein (FIG. 10). The binding experiments were performed on Carterra LSA with a running buffer of PBS pH 7.40, 1% BSA, 0.05% Tween20. Antibodies were covalently printed on an HC30M chip. Chip was activated with 33 mM s-NHS and 133 mM EDC in 100 mM MES pH 5.5 for 7 minutes. Antibodies at 10 mg/ml in acetic acid buffer pH 4.5 were used for printing for 10 min. The printed chip was then quenched with 1 M ethanolamine pH 8.5 for 7 min. For the reactivity assay, ATX-P-421, human CFHL1-Y402H-His, at 380 nM was tested with 5 min association followed by 15 min dissociation. Results were processed and analyzed in Carterra LSA Kinetics Software. The data was referenced with the interstitial reference spots and double-referenced to a buffer cycle, and then the responses (nm) after association were reported. Isotype control was used to determine the cutoff response for positive binding.

Experiment [2] deals with T2, human CFHL3-His (ATX-P-58) (human, UniProt Q02985 19-330).
T2 construct: also called human CFHR3 protein; CFHR3; not shown: C-terminal His tag (and linker)
T2 sequence (looked up): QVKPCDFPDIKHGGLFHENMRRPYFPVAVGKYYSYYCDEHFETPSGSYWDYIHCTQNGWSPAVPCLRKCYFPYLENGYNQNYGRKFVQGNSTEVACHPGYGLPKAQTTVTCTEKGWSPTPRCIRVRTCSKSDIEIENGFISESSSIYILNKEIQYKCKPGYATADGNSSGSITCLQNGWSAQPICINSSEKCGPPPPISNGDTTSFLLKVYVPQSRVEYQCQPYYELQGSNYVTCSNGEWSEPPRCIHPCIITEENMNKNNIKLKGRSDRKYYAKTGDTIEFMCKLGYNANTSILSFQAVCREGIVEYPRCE
The experiment in a line: Carterra LSA biosensor, mAb printed on chip, human CFHL3-His at 550 nM. The procedure: as §1, with “CFHR3” for “CFHL-1 (Y402H)”, “9).” for “10).”, “ATX-P-58,” for “ATX-P-421,”, “CFHL3-His,” for “CFHL1-Y402H-His,”, “550” for “380”

B1: ATX-P-578 (antibody, human IgG1, kappa, N297A, V domains shown)
VH: EVQLVESGGGLVQPGGSLRLSCAASGFTFSRYSMNWVRQAPGKGLEWVSYISSSSSTIFHADSVKGRFTISRDNAKNSLYLQMNSLRDEDTAVYYCARGNWNYYYMDVWGKGTTVTVSS
VL: DIQMTQSPSTLSASVGDRVTISCRASQSVNSWLAWYQQKPGKAPKLLIYKASNLEGGVPSSFSGSGSGTEFTLTISSLQPDDFATYYCQQYDTSWTFGQGTKVEIKR
For B1, the binding result in experiment [1] and in experiment [2] was “binds” each time.

B2: ATX-P-576 (antibody, human IgG1, kappa, N297A, V domains shown)
VH: EVQLVESGGGLVQPGRSLRLSCTASGFTFDDYEMHWVRQAPGKGLEWVSDISRNSGRIGYADSVKGRFTISRDNAKNSLYLQMNSLRAEDTALYYCAKDIWGSGYFDYWGQGILVTVSS
VL: DIQMTQSPSSVSASVGDRVTITCRTSQGIRNWLAWYQQKPGKAPKLLIYAASSLQTGGPSRFSGSGSGTDFTLTISSLQPEDFATYYCQQANSFPYTFGQGTKLEIKR
In the case of B2, the binding result in experiment [1] and in experiment [2] was “binds” throughout.

B3: ATX-P-563 (antibody, human IgG1, kappa, N297A, V domains shown)
VH: QVQLQESGPGLMKPSETLSLTCTVSGGSISSHYWSWIRQPPGKGLEWIGYIFYSGNINYNPSLKSRVTISVDTSKNQFSLKLRSVTTADTAVYYCARDRGGSYSYHFDCWGQGTLVTVSS
VL: DIQMTQSPSSVSASVGDRVTITCRASQSFAGWLAWYQQKPGKAPKLLIYAASTLQSGVPSRFSGSGSGTDFTLTISSLQPEDFATYYCQQANSFPLTFGGGTKVEIKR
For the molecule B3, the binding result in experiment [1] and in experiment [2] was “binds” each time.

B4: ATX-P-566 (antibody, human IgG1, kappa, N297A, V domains shown)
VH: QVQLQQSGPGLVKPSQTLSLTCAISGDSVSSNSAAWNWIRQSPSRGLEWLGRTYYRSKWFNNYSVSVKSRIAINPDTSKNQFSLQLNSVTPEDTAVYYCARDLGELLDWYFDLWGRGTLVTVSA
VL: EIVLTQSPGTLSLSPGDRATLSCRASQSVRNSYVAWYQQKPGQAPRLLIYGASSRATGIPDRFSGSGSGTDFSLTIGRLEPEDFVVYYCQQYGNSPLTFGGGTKVEIKR
For the molecule B4, the binding result in experiment [1] and in experiment [2] was “binds” throughout.

B5: ATX-P-564 (antibody, human IgG1, kappa, N297A, V domains shown)
VH: EVQLVESGGGLVKPGGSLRLSCAASGFTFSSYTMNWVRQAPGKGLEWVSSISSSSSYTYYADSVRGRFTISRDNAKNSLYLQMSSLRAEDTAVYYCARSASIAAGMDVWGKGTTVTVSS
VL: DIVMTQSPLSLPVTPGEPASISCRSSQSLLHSTGYNFLDWYLQKPGLSPQLLIYLASNRASGVPDRFSGSGSGTDFTLKISRVEAEDVGVYYCMQALQTPYTFGQGTKLEIKR
Turning to B5, the binding result in experiment [1] and in experiment [2] was “binds” each time.

B6: ATX-P-565 (antibody, human IgG1, kappa, N297A, V domains shown)
VH: QVQLVESGGGVVQPGRSLRLSCAASGFTFNTYGIHWVRQAPGKGLEWVAVIWHDGSSKNYVDSVTGRFTISRDNSKNTVYLQMNSLRAEDTAVYYCARRGNWNYGFYYYYMDVWGKGTTVTVSS
VL: DIVMTQSPLSLPVTPGEPASISCRSSQRLLHSSGYNYLDWYLQKPGQSPQLLIYLGSSRASGVPDRFSGSGSGTDFTLKISRVEAEDVGVYYCMQGLQTPPTFGQGTKVEIKR
For B6, the binding result in experiment [1] and in experiment [2] was “binds” in each case.

B7: ATX-P-583 (antibody, human IgG1, kappa, N297A, V domains shown)
VH: QVQLVQSGAEVKKPGASVKVSCKASGYTFTTYGISWVRQAPGQGLEWMGWISAYSGNTHYAQSLQDRVTMTTDTSTSTAYMEVRSLRSDDTAVYYCAKDEGYCSSTGCLNLFDPWGQGTLVTVSS
VL: DIQMTQSPSSLSASVGDRVTITCRASQNIGSYLNWYQQKPGNAPKLLIYATSTLQSGVPSRFSGSGSGTDFTLIISSLHPEDFTVYYCQQSFIIPFTFGPGTKVDIKR
Consider B7, for which the binding result in experiment [1] and in experiment [2] was “binds” throughout.

B8: ATX-P-562 (antibody, human IgG1, kappa, N297A, V domains shown)
VH: QVQLQQSGPGLVKSSQTLSLTCAISGDTVSSNSAAWNWIRQSPSRGLEWLGRTFYRSRWSAAYAASVSSRITINPDTSKNQFSLQLTSVTPADTAVYYCAREGVGSSTGFDYWGQGTLVTVSS
VL: DIQMTQSPSSVSASIGDRVTITCRASKGISIWLAWYQQKPGKAPKVLISAASSLQSGAPSRFSGSGSGTDFTLTISSLQPEDFATYYCQQANSFPPTFGQGTKVEIKR
Turning to B8, the binding result in experiment [1] and in experiment [2] was “binds” in each case.

B9: ATX-P-574 (antibody, human IgG1, kappa, N297A, V domains shown)
VH: EVQLVESGGGLVQRGGSLRLSCVASGFTFSSYAMSWVRQAPGKGLEWVSVISGSGGTTYYADSVKGRFTISRDDSKKTLYLQMNSLRAEDTAVYYCAKRGDYGDYMDVWGKGTTVTVSS
VL: DIQMTQSPSSVSASVGDRVTITCRASQGITTWLAWYQQKPGKAPKLLIFGASSLESGVPSRFSGSGSGTDFTLTISSLQPEDFATYYCQQANSFPWTFGQGTKVEIKR
With B9, the binding result in experiment [1] and in experiment [2] was “binds” throughout.

B10: ATX-P-573 (antibody, human IgG1, kappa, N297A, V domains shown)
VH: QVQLQQSGPGLVKPSQTLSLTCAISGDSVSSNSAAWNWIRQSPSRGLEWLGRTYYRSKLYSDYAVSVKSRITINPDTSRNQFSLQLNSVTPEDTAVYYCAREGGYTYGYDYWGQGTLVTVSS
VL: DIQMTQSPSSVSASVGDRVTITCRASQGISSWLAWYQQKPGKAPKVLIYAASSLQSGVPSRFSGSGSGTDFTLTISSLQPEDFATYYCQQANSFPPTFGPGTKVDIKR
For the molecule B10, the binding result in experiment [1] and in experiment [2] was “binds” each time.

B11: ATX-P-577 (antibody, human IgG1, kappa, N297A, V domains shown)
VH: QVQLQESGPGLVKPSGTLSLTCAVSGGSISSSNWWTWVRQPPGKGLEWIGETYHDGSTNYNPSLKSRVTISVDKSKNQFSLKLSSVTAADTAVYYCLEFYFDYWGQGTLVTVSS
VL: DIQMTQSPSSLSASVGDRVTITCRASQDIRNDLGWYQQKPGKVPKRLIYAASSLQSGVPSRFSGSGSGTEFTLTISSLQPEDFASYYCLQYNNYPFTLGPGTKVDIKR
Take B11: the binding result in experiment [1] and in experiment [2] was “binds” throughout.

B12: ATX-P-579 (antibody, human IgG1, kappa, N297A, V domains shown)
VH: QVQLQESGPGLVKPSGTLSLTCAVSGASISTSNWWTWVRQPPGKGLEWIGEIYHDGSTNYSPSLQSRVTISVDKSKNQFSLTLTSVTAADTAIYYCGDFYIDVWGNGTTVTVSS
VL: DIQMTQSPSSLSASVGDRVTITCRASQGIRKDLGWYQQKPGKAPKRLIYTASTLQSGVPSRFSGSGSGTEFTLTISSLQPEDFATYYCLQYNNYPFTFGPGTKVDIKR
For the molecule B12, the binding result in experiment [1] and in experiment [2] was “binds” in each case.

B13: ATX-P-580 (antibody, human IgG1, kappa, N297A, V domains shown)
VH: QVQLQESGPGLVKPSGTLSLTCAVSGGSISTSDWWTWVRQPPGKGLEWIGEIYHSGSTNYNPSLKSRVTISVDKSKNQFSLKLSSVTAADTAVYYCADWYFDLWGRGTLVTVSS
VL: DIQMTQSPSSLSASVGDRVTITCRASQGIRNDLGWYQQKPGKAPKRLIYAASSLQSGVPSRFSGSGSGTEFTLAISSLQPEDFATYYCLHFNSYPFTFGPGTKVDIKR
On to B13, for which the binding result in experiment [1] and in experiment [2] was “binds” each time.

B14: ATX-P-568 (antibody, human IgG1, kappa, N297A, V domains shown)
VH: EVQLVESGGGLVQPGGSLRLSCAASGFPFSSYVMSWVRQAPGKGLEWVSVISVSGGSTFYADSVRGRFTISRDNSKNTLYLQVYSLRAEDTAVYYCAKDGLAVAGFDHWGQGTLVTVSS
VL: DIQMTQSPSTLSASVGDRVTITCRASQSISTWLAWYQQKPGKAPKLLIHKASGLESGVPSRFSGSGSGTEFTLTISSLQPDDFATYYCQQYNSFSLIFGGGTRVEIKR
Turning to B14, the binding result in experiment [1] and in experiment [2] was “binds” in each case.

Values taken from patent US20250289873A1 (BROADWING BIO, published 2025).
